The text below walks through data of US20140248273A1 (published 2014).

In this assay the target is His-tagged SSL3 (S. aureus strain NCTC 8325), with the pRSETB N-terminal tag carrying the Xpress epitope (Staphylococcus aureus strain NCTC 8325, UniProt Q2G0X7 31-356). In words: ELISA, coated extracellular domain of mouse TLR2 (FIG. 5A).

B1: recombinant extracellular domain of mouse TLR2 (receptor)
chain: QESLSCDASGVCDGRSRSFTSIPSGLTAAMKSLDLSFNKITYIGHGDLRACANLQVLILKSSRINTIEGDAFYSLGSLEHLDLSDNHLSSLSSSWFGPLSSLKYLNLMGNPYQTLGVTSLFPNLTNLQTLRIGNVETFSEIRRIDFAGLTSLNELEIKALSLRNYQSQSLKSIRDIHHLTLHLSESAFLLEIFADILSSVRYLELRDTNLARFQFSPLPVDEVSSPMKKLAFRGSVLTDESFNELLKLLRYILELSEVEFDDCTLNGLGDFNPSESDVVSELGKVETVTIRRLHIPQFYLFYDLSTVYSLLEKVKRITVENSKVFLVPCSFSQHLKSLEFLDLSENLMVEEYLKNSACKGAWPSLQTLVLSQNHLRSMQKTGEILLTLKNLTSLDISRNTFHPMPDSCQWPEKMRFLNLSSTGIRVVKTCIPQTLEVLDVSNNNLDSFSLFLPRLQELYISRNKLKTLPDASLFPVLLVMKIRENAVSTFSKDQLGSFPKLETLEAGDNHFVCSCELLSFTMETPALAQILVDWPDSYLCDSPPRLHGHRLQDARPSVLECHQ
notes: extracellular domain; also called mTLR2
Regarding B1, the binding result is reported as “binds”.
